For 1 substance, EC50 results are on record in PMC7986998.

For this assay, the target named is human ACE2-Fc (human) (UniProt Q9BYF1). Kind of assay: ELISA.
human ACE2-Fc (human), sequence (Q9BYF1 18-740): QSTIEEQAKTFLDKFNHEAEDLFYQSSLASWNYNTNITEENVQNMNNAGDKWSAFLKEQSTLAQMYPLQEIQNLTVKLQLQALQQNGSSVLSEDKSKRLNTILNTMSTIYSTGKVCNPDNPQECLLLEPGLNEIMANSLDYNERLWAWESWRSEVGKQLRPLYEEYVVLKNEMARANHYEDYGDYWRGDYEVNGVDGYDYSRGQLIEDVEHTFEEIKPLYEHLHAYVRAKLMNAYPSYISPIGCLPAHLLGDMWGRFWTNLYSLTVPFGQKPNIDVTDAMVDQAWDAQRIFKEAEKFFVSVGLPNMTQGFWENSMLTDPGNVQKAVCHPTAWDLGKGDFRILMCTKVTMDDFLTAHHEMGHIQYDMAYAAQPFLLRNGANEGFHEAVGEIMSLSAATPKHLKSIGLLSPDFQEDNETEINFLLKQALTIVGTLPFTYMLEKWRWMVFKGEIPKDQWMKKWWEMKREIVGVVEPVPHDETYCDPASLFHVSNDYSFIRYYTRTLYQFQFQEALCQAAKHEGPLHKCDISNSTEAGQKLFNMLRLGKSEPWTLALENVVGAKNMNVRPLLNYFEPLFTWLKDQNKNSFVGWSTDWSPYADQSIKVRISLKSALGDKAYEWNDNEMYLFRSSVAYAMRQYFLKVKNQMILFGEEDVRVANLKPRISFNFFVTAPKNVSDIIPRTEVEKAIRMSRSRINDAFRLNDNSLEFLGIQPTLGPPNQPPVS

As usually defined, the EC50 is the concentration needed to bring the measured effect to its halfway point. A lower EC50 goes with a more potent agent. As for “SARS-CoV S 2P ectodomain trimer (from UniProt P59594 14-1195) (domain or fragment)”, the EC50 turned out to be 4.11 nM.
